Kd data for 1 molecule are collected here from publication doi:10.1101/830265, “Relationships between puroindoline-prolamin interactions and wheat grain hardness” (bioRxiv, 2019).

The target of test [1] is T1, puroindoline A (Triticum aestivum, UniProt P33432 29-148).
T1 construct: puroindoline A (PINA) of Triticum aestivum, purified from grain of cv; about 13 kDa, five disulfide bonds; matured by cleavages at both N- and C-termini, with forms that differ at the C-terminus; The Pina allele of cv; also called PINA; source: purified from the hard wheat Triticum aestivum cultivar Recital
T1 sequence (looked up): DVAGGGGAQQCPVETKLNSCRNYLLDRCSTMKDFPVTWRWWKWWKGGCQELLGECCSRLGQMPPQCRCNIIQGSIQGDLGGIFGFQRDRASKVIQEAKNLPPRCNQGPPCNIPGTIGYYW
Kind of test: SPR; Biacore X100, CM5 chip; gliadin or (PQQPY)8 covalently immobilised, PINA flowed at 10 uL/min, 25°C, Hepes buffer pH 7.4 (10 mM Hepes, 150 mM NaCl, 3.4 mM EDTA, 0.005% P20); global kinetic fit, 1:1 Langmuir model, KD=kd/ka. The conditions noted are these: both partners purified. On the technique in general: Surface plasmon resonance follows binding to a sensor surface in real time, without labels.

The target in test [2] is T1, puroindoline A. The test is described as follows: SPR; same sensorgrams as the kinetic fit (immobilised (PQQPY)8, PINA 2 to 20 uM flowed, 25°C, Hepes buffer pH 7.4); steady-state fit, 1:1 Langmuir model. The conditions noted are these: both partners purified.

B1: recombinant polypeptide (PQQPY)8 (peptide)
chain: PQQPYPQQPYPQQPYPQQPYPQQPYPQQPYPQQPYPQQPY
notes: eight repeats of the pentapeptide PQQPY, written out from the printed formula (PQQPY)8; mimics the consensus repeat domain of gliadins; measured mass 4924.5 Da (theoretical 4924.3 Da); Released from thioredoxin-DP-(PQQPY)8 by formic acid; the printed theoretical mass of 4924.3 Da fits the 40 residues of eight repeats with no further residue; also called (Pro-Gln-Gln-Pro-Tyr)8; repetitive domain …
For B1, the figures for the dissociation constant Kd in test [1] and in test [2] were 0.29 µM and 7.22 µM, respectively.
